Eleven molecules from publication PMC10771490, “The structure of a tetrameric septin complex reveals a hydrophobic element essential for NC-interface integrity” (Communications Biology, 2024) can be followed below.

Residue numbers refer to the chain shown, from its start. Numbers in names are those of the source.

The target in data set [1] is T1, Cdc3_(Q81-A410) (Saccharomyces cerevisiae, UniProt P32457 81-410).
T1 construct: Cdc3, septin of Saccharomyces cerevisiae, residues Q81-A410 (extensions removed); source: E. coli BL21DE3, coexpressed with the other subunits, purified (HisTrap IMAC, anion exchange, SEC)
T1 sequence (looked up): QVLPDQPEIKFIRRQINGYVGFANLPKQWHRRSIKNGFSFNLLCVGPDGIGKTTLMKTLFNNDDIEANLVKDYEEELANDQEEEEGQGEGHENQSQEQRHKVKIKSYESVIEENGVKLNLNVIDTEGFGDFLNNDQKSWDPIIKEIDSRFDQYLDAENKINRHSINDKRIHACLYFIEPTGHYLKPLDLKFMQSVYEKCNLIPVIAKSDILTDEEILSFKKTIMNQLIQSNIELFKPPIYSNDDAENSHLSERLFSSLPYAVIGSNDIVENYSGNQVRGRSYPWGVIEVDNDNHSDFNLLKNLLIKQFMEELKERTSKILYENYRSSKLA
In words: crystal structure; coexpressed tetrameric complex loaded with GTP before crystallization; sitting-drop vapor diffusion, 20% PEG 5000, 300 mM ammoniumsulfate, 100 mM Bis-Tris pH 6.5, 20 °C; 3.24 Å, space group C 1 2 1, a tetramer in the asymmetric unit. Particulars: both partners purified.

Another data set deals with T2, Shs1_(G21-S339) (Saccharomyces cerevisiae, UniProt Q07657 21-339).
T2 construct: Shs1, septin of Saccharomyces cerevisiae, residues G21-S339 (unstructured extensions removed); The complex was purified on a HisTrap column; source: E. coli BL21DE3, coexpressed with the other subunits, purified (HisTrap IMAC, anion exchange, SEC)
T2 sequence (looked up): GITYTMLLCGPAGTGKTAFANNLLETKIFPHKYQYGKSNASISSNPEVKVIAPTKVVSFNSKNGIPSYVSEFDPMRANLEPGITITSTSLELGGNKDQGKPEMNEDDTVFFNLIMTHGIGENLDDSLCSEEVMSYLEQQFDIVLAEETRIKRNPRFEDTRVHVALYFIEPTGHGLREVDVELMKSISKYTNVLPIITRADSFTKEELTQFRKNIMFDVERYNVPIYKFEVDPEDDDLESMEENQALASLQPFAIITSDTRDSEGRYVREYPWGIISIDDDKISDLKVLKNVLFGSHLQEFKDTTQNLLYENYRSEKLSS
Described as above. The following applies: both partners purified.

Data set [2] concerns the molecule itself. In words: SEC; analytical SEC of yeast septin complexes purified by IMAC and IEX; Superose 6, 25 mM Tris pH 8.0, 300 mM NaCl; elution compared with tetramer and octamer references.
Data set [3] deals with the molecule itself. Nature of the data set: cross-linking; engineered cysteine pairs across the Cdc10-Cdc10 NC-interface; complexes expressed in E. coli T7-SHuffle Express, purified by IMAC in non-reducing buffers, SDS-PAGE with and without β-Mercaptoethanol, Western blot against the S-tag on Cdc10. A general note: In western blotting, separated proteins are transferred to a membrane and probed.

Data set [4] has as its target T1, Cdc3_(Q81-A410). In words: SEC; analytical SEC of yeast septin complexes purified by IMAC and IEX; Superose 6, 25 mM Tris pH 8.0, 300 mM NaCl; elution compared with tetramer and octamer references. The following applies: both partners purified. A general note: In gel filtration, larger molecules generally elute earlier.

B1: Cdc12_(M1-G314) (domain or fragment, Saccharomyces cerevisiae, UniProt P32468 1-314, looked up)
chain: MSAATATAAPVPPPVGISNLPNQRYKIVNEEGGTFTVMLCGESGLGKTTFINTLFQTVLKRADGQQHRQEPIRKTVEIDITRALLEEKHFELRVNVIDTPGFGDNVNNNKAWQPLVDFIDDQHDSYMRQEQQPYRTKKFDLRVHAVLYFIRPTGHGLKPIDIETMKRLSTRANLIPVIAKADTLTAQELQQFKSRIRQVIEAQEIRIFTPPLDADSKEDAKSGSNPDSAAVEHARQLIEAMPFAIVGSEKKFDNGQGTQVVARKYPWGLVEIENDSHCDFRKLRALLLRTYLLDLISTTQEMHYETYRRLRLEG
notes: Cdc12, septin of Saccharomyces cerevisiae, residues M1-G314 (C-terminal extension removed); source: E. coli BL21DE3, coexpressed with the other subunits, purified (HisTrap IMAC, anion exchange, SEC)
For B1, the binding result in the data set with Cdc3_(Q81-A410) [1] and in the data set with Shs1_(G21-S339) was “binds” throughout.

B2: Cdc10_(G30-R322) (domain or fragment, Saccharomyces cerevisiae, UniProt P25342 30-322, looked up)
chain: GFQFNIMVVGQSGLGKSTLINTLFASHLIDSATGDDISALPVTKTTEMKISTHTLVEDRVRLNINVIDTPGFGDFIDNSKAWEPIVKYIKEQHSQYLRKELTAQRERFITDTRVHAILYFLQPNGKELSRLDVEALKRLTEIANVIPVIGKSDTLTLDERTEFRELIQNEFEKYNFKIYPYDSEELTDEELELNRSVRSIIPFAVVGSENEIEINGETFRGRKTRWSAINVEDINQCDFVYLREFLIRTHLQDLIETTSYIHYEGFRARQLIALKENANSRSSAHMSSNAIQR
notes: Cdc10, septin of Saccharomyces cerevisiae, residues G30-R322 (lacks the α0-helix); also called Cdc10 lacking the α0-helix; Cdc10 of the truncated tetramer; source: E. coli BL21DE3, coexpressed with the other subunits, purified (HisTrap IMAC, anion exchange, SEC)
For the molecule B2, the binding result with Cdc3_(Q81-A410) [1] was “binds”.

B3: Cdc10_(L27A) (natural protein, Saccharomyces cerevisiae, UniProt P25342 1-322, looked up)
chain: MDPLSSVQPASYVGFDTITNQIEHRLAKKGFQFNIMVVGQSGLGKSTLINTLFASHLIDSATGDDISALPVTKTTEMKISTHTLVEDRVRLNINVIDTPGFGDFIDNSKAWEPIVKYIKEQHSQYLRKELTAQRERFITDTRVHAILYFLQPNGKELSRLDVEALKRLTEIANVIPVIGKSDTLTLDERTEFRELIQNEFEKYNFKIYPYDSEELTDEELELNRSVRSIIPFAVVGSENEIEINGETFRGRKTRWSAINVEDINQCDFVYLREFLIRTHLQDLIETTSYIHYEGFRARQLIALKENANSRSSAHMSSNAIQR
notes: Cdc10, septin of Saccharomyces cerevisiae, hydrophobic crest mutant (position 15 of the motif); Compared with the wildtype octamer; source: E. coli BL21DE3, co-expressed as septin complex, purified (IMAC, IEX)
Consider B3, for which the binding result in data set [2] is “binds”.

B4: Cdc10 L26A in the disulfide bridge mutant A132C/L300C (natural protein, Saccharomyces cerevisiae, UniProt P25342 1-322, looked up)
chain: B3 chain with L26A, A27L, A132C, L300C
notes: Cdc10, septin of Saccharomyces cerevisiae, disulfide bridge mutant A132C/L300C with L26A; also called L26A (disulfide mutant); source: E. coli T7-SHuffle Express, co-expressed with the other full-length subunits, purified (IMAC, non-reducing buffers)
As for B4, the binding result in data set [3] was “binds”.

B5: Cdc10 T19C/E23C (disulfide bridge mutant) (natural protein, Saccharomyces cerevisiae, UniProt P25342 1-322, looked up)
chain: B3 chain with T19C, E23C, A27L
notes: Cdc10, septin of Saccharomyces cerevisiae, native, non-truncated, with two cysteines for a disulfide between the two α0-helices; also called T19C and E23C; source: E. coli T7-SHuffle Express, co-expressed with the other full-length subunits, purified (IMAC, non-reducing buffers)
In the case of B5, the binding result in data set [3] was “binds”.

B6: Cdc10 L26A (natural protein, Saccharomyces cerevisiae, UniProt P25342 1-322, looked up)
chain: B3 chain with L26A, A27L
notes: Cdc10, septin of Saccharomyces cerevisiae, mutant of the non-conserved position 14 of the hydrophobic crest motif; Compared with the wildtype octamer; source: E. coli BL21DE3, co-expressed as septin complex, purified (IMAC, IEX)
For B6, the binding result in data set [2] was “binds”.

B7: Cdc10 A132C/L300C (disulfide bridge mutant) (natural protein, Saccharomyces cerevisiae, UniProt P25342 1-322, looked up)
chain: B3 chain with A27L, A132C, L300C
notes: also called Cdc10^A_(A132)-Cdc10^B_(L300); source: E. coli T7-SHuffle Express, co-expressed with the other full-length subunits, purified (IMAC, non-reducing buffers)
Regarding B7, the binding result in data set [3] is on record as “binds”.

B8: Cdc10, native, non-truncated (wild type) (natural protein, Saccharomyces cerevisiae, UniProt P25342 1-322, looked up)
chain: B3 chain with A27L
notes: Cdc10, septin of Saccharomyces cerevisiae, native, non-truncated; An S-tag is named on Cdc10 only for the Western blots of the disulfide mutants; also called Cdc10 of the untruncated octamer; source: E. coli BL21DE3, co-expressed with the other full-length subunits, purified (IMAC, IEX)
As for B8, the binding result in data set [2] is listed as “binds”.

B9: Cdc10 L27A in the disulfide bridge mutant A132C/L300C (natural protein, Saccharomyces cerevisiae, UniProt P25342 1-322, looked up)
chain: B3 chain with A132C, L300C
notes: Cdc10, septin of Saccharomyces cerevisiae, disulfide bridge mutant A132C/L300C with L27A; also called L27A (disulfide mutant); source: E. coli T7-SHuffle Express, co-expressed with the other full-length subunits, purified (IMAC, non-reducing buffers)
Consider B9, for which the binding result in data set [3] was “binds”.

B10: Cdc10 Q21C/Q281C (disulfide bridge mutant) (natural protein, Saccharomyces cerevisiae, UniProt P25342 1-322, looked up)
chain: B3 chain with Q21C, A27L, Q281C
notes: source: E. coli T7-SHuffle Express, co-expressed with the other full-length subunits, purified (IMAC, non-reducing buffers)
B10: the binding result in data set [3] is “binds”.

B11: Cdc10_(M1-R322) (natural protein, Saccharomyces cerevisiae, UniProt P25342 1-322, looked up)
chain: B3 chain with A27L
notes: Cdc10, septin of Saccharomyces cerevisiae, residues M1-R322; kept apart from m6 because it stood with truncated partner subunits; also called Cdc10 with the α0-helix added, in the otherwise truncated complex; source: E. coli BL21DE3, coexpressed with Shs1_(G21-S339), Cdc12_(M1-G314) and Cdc3_(Q81-A410), purified (IMAC, IEX)
Turning to B11, the binding result (with Cdc3_(Q81-A410) [4]; in data set [2]) was “binds” throughout.
